Measurements: the supplement of paper PMC9112550, “Optimization of the antimicrobial peptide Bac7 by deep mutational scanning” (BMC Biology, 2022)

What follows are sequences tested on Escherichia coli TOP10 (assay: shrunken log2 fold change of peptide-encoding DNA abundance (4.5 h post-induction vs induction); higher = less antimicrobial activity (less host growth inhibition)). Details: time post-induction: 4.5 h; library: site-saturation at positions 5, 18, 19, 20.
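Also: peptides expressed intracellularly from a pBAD plasmid library in pooled LB shake-flask culture, induced with 0.3% L-arabinose, DNA abundance read by NGS, three biological replicates, DESeq2 with apeglm shrinkage.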

First: RRIRVRPPRLPRPRPRPSKDPRP
Second: RRIRRRPPRLPRPRPRPCPWPRP
The “shrunken log2 fold change” value of the first is lower: -0.563 for the first, -0.0433 for the second.

First: RRIRERPPRLPRPRPRPGMNPRP
Second: RRIRWRPPRLPRPRPRPICTPRP
The “shrunken log2 fold change” value of the first is lower: -0.308 for the first, 0.537 for the second.

RRIRLRPPRLPRPRPRPANFPRP and RRIRARPPRLPRPRPRPWKRPRP are within 0.2 log units of each other in “shrunken log2 fold change” value: 0.0302 for the first, 0.125 for the second.

RRIRVRPPRLPRPRPRPDGSPRP and RRIRERPPRLPRPRPRPLWSPRP are within 0.2 log units of each other in “shrunken log2 fold change” value: -0.0225 for the first, -0.125 for the second.

Compared with RRIRDRPPRLPRPRPRPLAMPRP, RRIRTRPPRLPRPRPRPCLTPRP is lower in “shrunken log2 fold change” value: 0.767 for the first, -0.319 for the second.

Going from RRIRIRPPRLPRPRPRPDISPRP to RRIRYRPPRLPRPRPRPMKHPRP, the “shrunken log2 fold change” value falls from -0.0405 to -0.495.

RRIRHRPPRLPRPRPRPIQIPRP and RRIRHRPPRLPRPRPRPNLQPRP are within 0.2 log units of each other in “shrunken log2 fold change” value: -0.139 for the first, -0.0526 for the second.

Compared with RRIRDRPPRLPRPRPRPPGDPRP, RRIRCRPPRLPRPRPRPVNVPRP is lower in “shrunken log2 fold change” value: 1.29 for the first, -0.249 for the second.

Compared with RRIRDRPPRLPRPRPRPQTFPRP, RRIRCRPPRLPRPRPRPKYCPRP is lower in “shrunken log2 fold change” value: 0.0361 for the first, -0.264 for the second.

RRIRTRPPRLPRPRPRPACKPRP and RRIRHRPPRLPRPRPRPDHAPRP are within 0.2 log units of each other in “shrunken log2 fold change” value: 0.172 for the first, 0.0557 for the second.

RRIRVRPPRLPRPRPRPCICPRP and RRIRQRPPRLPRPRPRPSWTPRP are within 0.2 log units of each other in “shrunken log2 fold change” value: -0.338 for the first, -0.15 for the second.

First: RRIRYRPPRLPRPRPRPITNPRP
Second: RRIRPRPPRLPRPRPRPDHPPRP
The “shrunken log2 fold change” value of the first is lower: -0.544 for the first, -0.147 for the second.

Compared with RRIRRRPPRLPRPRPRPEFYPRP, RRIRSRPPRLPRPRPRPMNNPRP is lower in “shrunken log2 fold change” value: 0.413 for the first, -0.479 for the second.

Going from RRIRRRPPRLPRPRPRPYYWPRP to RRIRFRPPRLPRPRPRPNPPPRP, the “shrunken log2 fold change” value rises from -0.0449 to 0.544.

Compared with RRIRKRPPRLPRPRPRPHSPPRP, RRIRKRPPRLPRPRPRPKPSPRP is higher in “shrunken log2 fold change” value: 0.16 for the first, 0.743 for the second.

First: RRIRYRPPRLPRPRPRPAVTPRP
Second: RRIRMRPPRLPRPRPRPMNHPRP
The “shrunken log2 fold change” value of the first is lower: -3.6 for the first, -0.129 for the second.

RRIRKRPPRLPRPRPRPISLPRP and RRIRQRPPRLPRPRPRPENVPRP are within 0.2 log units of each other in “shrunken log2 fold change” value: 0.00252 for the first, -0.0767 for the second.

Compared with RRIRKRPPRLPRPRPRPIPRPRP, RRIRPRPPRLPRPRPRPMMNPRP is lower in “shrunken log2 fold change” value: 1.3 for the first, 0.03 for the second.

Going from RRIRIRPPRLPRPRPRPGFRPRP to RRIRYRPPRLPRPRPRPCGTPRP, the “shrunken log2 fold change” value falls from 0.0935 to -0.193.

Going from RRIRDRPPRLPRPRPRPKPAPRP to RRIRLRPPRLPRPRPRPKMEPRP, the “shrunken log2 fold change” value falls from 0.278 to -0.0157.

Compared with RRIRQRPPRLPRPRPRPVTPPRP, RRIRRRPPRLPRPRPRPLIAPRP is higher in “shrunken log2 fold change” value: -0.00477 for the first, 0.294 for the second.

RRIRDRPPRLPRPRPRPAMMPRP and RRIRMRPPRLPRPRPRPQVQPRP are within 0.2 log units of each other in “shrunken log2 fold change” value: -0.0512 for the first, -0.000946 for the second.

First: RRIRWRPPRLPRPRPRPIWEPRP
Second: RRIRARPPRLPRPRPRPVWYPRP
The “shrunken log2 fold change” value of the first is higher: 0.00194 for the first, -0.395 for the second.

First: RRIRHRPPRLPRPRPRPGRWPRP
Second: RRIRHRPPRLPRPRPRPDAIPRP
The “shrunken log2 fold change” value of the first is higher: 0.413 for the first, -0.025 for the second.

Compared with RRIRARPPRLPRPRPRPGTAPRP, RRIRQRPPRLPRPRPRPHMQPRP is lower in “shrunken log2 fold change” value: 0.493 for the first, -0.288 for the second.

First: RRIRLRPPRLPRPRPRPDPPPRP
Second: RRIRGRPPRLPRPRPRPKIKPRP
The “shrunken log2 fold change” value of the first is lower: 0.337 for the first, 0.564 for the second.

RRIRERPPRLPRPRPRPMKPPRP and RRIRARPPRLPRPRPRPHCHPRP are within 0.2 log units of each other in “shrunken log2 fold change” value: -0.0018 for the first, -0.195 for the second.

Compared with RRIRVRPPRLPRPRPRPMTVPRP, RRIRFRPPRLPRPRPRPPWGPRP is higher in “shrunken log2 fold change” value: 0.116 for the first, 0.399 for the second.

RRIRFRPPRLPRPRPRPLATPRP and RRIRTRPPRLPRPRPRPVFKPRP are within 0.2 log units of each other in “shrunken log2 fold change” value: -0.00506 for the first, 0.0882 for the second.

RRIRTRPPRLPRPRPRPHCQPRP and RRIRARPPRLPRPRPRPYPCPRP are within 0.2 log units of each other in “shrunken log2 fold change” value: -0.359 for the first, -0.417 for the second.

Going from RRIRFRPPRLPRPRPRPGCWPRP to RRIRCRPPRLPRPRPRPDREPRP, the “shrunken log2 fold change” value falls from 0.524 to 0.0186.

Compared with RRIRFRPPRLPRPRPRPVFYPRP, RRIRFRPPRLPRPRPRPACCPRP is higher in “shrunken log2 fold change” value: -0.536 for the first, 0.229 for the second.

RRIRGRPPRLPRPRPRPWCTPRP and RRIRFRPPRLPRPRPRPGQYPRP are within 0.2 log units of each other in “shrunken log2 fold change” value: -0.0466 for the first, -0.0815 for the second.

Compared with RRIRCRPPRLPRPRPRPTCDPRP, RRIRQRPPRLPRPRPRPNWYPRP is lower in “shrunken log2 fold change” value: 0.187 for the first, -0.0479 for the second.

Going from RRIRIRPPRLPRPRPRPKFHPRP to RRIRRRPPRLPRPRPRPQRKPRP, the “shrunken log2 fold change” value rises from -0.375 to 0.347.

Going from RRIRPRPPRLPRPRPRPWIWPRP to RRIRKRPPRLPRPRPRPDGDPRP, the “shrunken log2 fold change” value rises from -0.186 to 3.21.

Going from RRIRHRPPRLPRPRPRPKTWPRP to RRIRPRPPRLPRPRPRPVINPRP, the “shrunken log2 fold change” value falls from -0.0101 to -0.626.

RRIRERPPRLPRPRPRPIRRPRP and RRIRLRPPRLPRPRPRPVYVPRP are within 0.2 log units of each other in “shrunken log2 fold change” value: -0.17 for the first, -0.367 for the second.

First: RRIRNRPPRLPRPRPRPMRCPRP
Second: RRIRCRPPRLPRPRPRPRPKPRP
The “shrunken log2 fold change” value of the first is lower: -0.123 for the first, 0.901 for the second.

RRIRWRPPRLPRPRPRPNYMPRP and RRIRLRPPRLPRPRPRPCRLPRP are within 0.2 log units of each other in “shrunken log2 fold change” value: -0.385 for the first, -0.286 for the second.

Compared with RRIRIRPPRLPRPRPRPSWIPRP, RRIRLRPPRLPRPRPRPIWFPRP is higher in “shrunken log2 fold change” value: -0.411 for the first, 0.0419 for the second.

Going from RRIRWRPPRLPRPRPRPEQMPRP to RRIRFRPPRLPRPRPRPIGHPRP, the “shrunken log2 fold change” value falls from 0.222 to -0.115.

Compared with RRIRGRPPRLPRPRPRPVGAPRP, RRIRTRPPRLPRPRPRPIIPPRP is lower in “shrunken log2 fold change” value: 1.13 for the first, -0.279 for the second.

RRIRWRPPRLPRPRPRPHTFPRP and RRIRGRPPRLPRPRPRPISKPRP are within 0.2 log units of each other in “shrunken log2 fold change” value: -0.0424 for the first, 0.0989 for the second.

RRIRMRPPRLPRPRPRPHPIPRP and RRIRLRPPRLPRPRPRPSHQPRP are within 0.2 log units of each other in “shrunken log2 fold change” value: -0.116 for the first, -0.231 for the second.

Going from RRIRSRPPRLPRPRPRPHNPPRP to RRIRKRPPRLPRPRPRPHSTPRP, the “shrunken log2 fold change” value rises from -0.531 to -0.0637.

First: RRIRGRPPRLPRPRPRPYGSPRP
Second: RRIRIRPPRLPRPRPRPDSPPRP
The “shrunken log2 fold change” value of the first is lower: -0.303 for the first, -0.0466 for the second.

RRIRWRPPRLPRPRPRPDLYPRP and RRIRMRPPRLPRPRPRPFMWPRP are within 0.2 log units of each other in “shrunken log2 fold change” value: 0.0586 for the first, -0.128 for the second.

RRIRARPPRLPRPRPRPNPYPRP and RRIRYRPPRLPRPRPRPATWPRP are within 0.2 log units of each other in “shrunken log2 fold change” value: -0.115 for the first, -0.154 for the second.

Compared with RRIRERPPRLPRPRPRPYISPRP, RRIRCRPPRLPRPRPRPTRIPRP is higher in “shrunken log2 fold change” value: -0.977 for the first, 0.258 for the second.

First: RRIRPRPPRLPRPRPRPRYCPRP
Second: RRIRNRPPRLPRPRPRPALPPRP
The “shrunken log2 fold change” value of the first is lower: -0.191 for the first, 0.248 for the second.

RRIRGRPPRLPRPRPRPQGYPRP and RRIRDRPPRLPRPRPRPEFKPRP are within 0.2 log units of each other in “shrunken log2 fold change” value: 0.045 for the first, -0.0319 for the second.

Going from RRIRDRPPRLPRPRPRPGCPPRP to RRIRARPPRLPRPRPRPGADPRP, the “shrunken log2 fold change” value rises from 0.0445 to 0.832.

RRIRGRPPRLPRPRPRPWLHPRP and RRIRMRPPRLPRPRPRPTFPPRP are within 0.2 log units of each other in “shrunken log2 fold change” value: 0.106 for the first, 0.0878 for the second.

In the case of RRIRYRPPRLPRPRPRPFHHPRP, the “shrunken log2 fold change” value is reported as -1.19.
